Test results as given in the DeepSol protein solubility set.

assay: soluble on expression in E. coli; label from the status in PepcDB or PDB records

**Q.** For “SMSMKATRLAIPDVILFEPRVFGDDRGFFFESYNQRAFEEACGHPVSFVQDNHSRSARGVLRGLHYQIRQAQGKLVRATLGEVFDVAVDLRRGSPTFGQWVGERLSAENKRQMWIPAGFAHGFVVLSEYAEFLYKTTDFWAPEHERCIVWNDPELKIDWPLQDAPLLSEKDRQGKAFADADCFP”, which “soluble on expression in E. coli” value is on record?
**A.** Its value is “soluble”.

**Q.** For “GQYDYIKVAVSLMGSAYYVDFAKELSKYALAQGLTFPYDVDERILALQKYDLTQNITKINNRPLLLWHGKKDDVVPFAYSEKLYQTLVEESLADNVEFIIDDNAKHKVSVEGMLQGVSFFEKFL”, which “soluble on expression in E. coli” value is on record?
**A.** Its value is “not soluble”.

**Q.** With “MFSPLECRLAVACKFQDDRYYKLFHQYFDLLAQVHSVVETMDGLWMLRVWRAQKFGPESIKERRERQLFHVTQFSFKRYIVPPNPRIGKAIEEFGKEYLIEINVYDEHRADLVSLNSGNFVAIQNVHAASTPHREIQILHGGGEAYQRGISTVPVDFEVDAFQNFKRKVESVLENVLYDENFIEFQQPEEVTENRVPEEPQLNIHKDPLPSDLPQ” as the sequence, how does the “soluble on expression in E. coli” value read?
**A.** Its value is “soluble”.

**Q.** With “GSHMIKVLSPAKINLGLWVLGRLPSGYHEILTLYQEIPFYDEIYIREGVLRVETNIGIPQEENLVYKGLREFERITGIEINYSIFIQKNIPPGAGLGGGSSNLAVVLKKVNELLGSPLSEEELRELVGSISADAPFFLLGKSAIGRGKGEVLEPVETEISGKITLVIPQVSSSTGRVYSSLREEHFVTPEYAEEKIQRIISGEVEEIENVLGDIARELYPEINEVYRFVEYLGFKPFVSGSGSTVYFFGGASEELKKAAKMRGWKVVELEL” as the sequence, how does the “soluble on expression in E. coli” value read?
**A.** Its value is “soluble”.

**Q.** For “MGSDKIHHHHHHMYFELKENRPHGTPENPFSQYHISDVKRAFQIPVHWHDELEIIYVKQGKLHVTISGENYIGSPKDAFVVSPGSLHLMGSPTGDADYYTFLFPLEYISFQTDDLMEKSILSPLKRGRLMISPQINDTAADICERLIEINEQISGKNAEKTDAANIEAQFETKITLIKFIRKMWRNGLILENGTNGTNTTEKEMITYIRQNYTREISLKEFGAQFHLSEKYISRYFKEHFHITLSQYVNHLRLEHARQLLEESTASVTEVAMCSGYQNVSYFIRSFKKMYGVSPLKYRNFQTLP”, which “soluble on expression in E. coli” value is on record?
**A.** Its value is “not soluble”.

**Q.** With “GPGSMLRRTLYALTRPRDSAAASRDKAHFDVCVIGGGPAGIAAALRAADYNKRVCVVEKARLGGNDLWDGALQSKTMWECSAIMAKMRGDAAMRLYGESLDRYLEIDEVKMRQSMEQVSRIREEQIQAALKASPNVELVLGRATFSSNHEIQCHSKRTKEFRSITADYFIVATGSKPRKHPYVAADGRLVMTSDHIMRAPLPKSLVIVGAGVIGCEFASIIGRLGKTKVSIIDKAPHILPREDPDIVRMIESGMDRAGIVVHHNSDLYDMQPWEETVEEAKARHPADPAPQSGVQYTVMDRTTRKLTTFQVERALISIGRVPDYSRLGIENTTLKTRGSQLHVNEFGQCVGTPHIFAVGDAATHMQLVSMGEAQAKLAVDYIYGTEPKVVPNLTETMSSVAFLTRAVASVGYNESQCREKGIAYIAARYSYEVVSRAVAAANTKGFVKIICADDPERRILGVRALGMNASTLVDIGALAIQNGQGVFDLAGRLTAYPAVSQAFQECLRSILDLSAQLHADPARGVKLTKWTPPDMSRGVAYKGKATAPGESSPRQSGWVIH” as the sequence, how does the “soluble on expression in E. coli” value read?
**A.** The value was “not soluble”.

**Q.** For “MSMIDIDPPSFQSPRPIAGDDGNRRTVLYGDYTVFSVFQPVFSVSHRRAIGYHASLRAHDSQGNQVPSHDVFTQAARRGDLLELGRLAESLHLGNFHTFDSHDEWLFLSLHPAALMDTVYGDALLANLKALGLPPQRVVLEVPEQAGGETPRFAAIVDGLRKAGFLIALGGFGAKHSNIDRVWHLHPDIVTLDRGILAQASEHSHLERVLPGLVSLLHESGQLVLMGGITTEREALIALECDVDFVQGQYFAGP”, which “soluble on expression in E. coli” value is on record?
**A.** Its value is “not soluble”.

**Q.** For “MAHHHHHHMSEKKEYINPAGLRLDGRRPQESRRMTLEFGKVLGCDGCCTVMSGLATVCASVYGPREVTNRLESKYNECIITCEVAIAAFAGEKRRAPQRRSKLSEEMSAAVLEVARSVVLLSQYPNSQIHICVEVLRQDGSDKAACINAACLALVDACVAMRDIVYAQTVGLIHAVDVVDLTTEEMRSQCPTICIAVKGHDPSSIVWMESNCRVTSEVVSRLVTVAQKSSEGVFAAALRGPLEEHAAAILKLQGNLGNGD”, which “soluble on expression in E. coli” value is on record?
**A.** The value was “not soluble”.

**Q.** With “MTLTRGSFTYSSGEEYTGEWKEGRRHGKGELKFADGTCYKGHFENGLFHGSGVLVFPDGSRYEGEFAQGKFQGVGIFSRFDGMKFEGEFKSGRVEGHGLLTFPDGSHGAPRNEGMFENNKLLKREKCQAVVQRAKNSASTARGLSV” as the sequence, how does the “soluble on expression in E. coli” value read?
**A.** The value was “soluble”.

**Q.** Which “soluble on expression in E. coli” value does the source give for “MGSDKIHHHHHHMIPLFDLTRQYERIRGEILNAIDKLISSGNVILGENVRRLEEEIASFTGVKHGVGVASGSDALLIALRAMGVEKGDTVVTTPYTFFATASAPYRLGARVIFVDVDESTFNMDLNQLEHVLKKEKVKAIIPVHLFGRTVDLEALSFLREKYGVMILEDCAQSMGSEWKFSSGEIRKSGSVGDAAIFSFFPTKNLGTYGDGGMIVTNSDEIAEESRILRVHGARKKYFHEKVGYNSRLDEIHAAILRVKLRYLERWTEERTRVARTYQKLFEEKKLPVVYPRVEEKGFRYHVFHQYVVLFENEEVRERVREGLKERGIQTAIYYPLPLHLQKCFRDLGYQEGDFPVAESLSKRSLALPMFPELRDDEIKEVVDTIALFL” here?
**A.** Its value is “not soluble”.

**Q.** Which “soluble on expression in E. coli” value does the source give for “GMKTNEVLETIKARRSVRAYDRKQIPADDLNAILEAGAYAPSGMHYETWHFTAVCNTVKLEELNERIKGAFAKSDDKHLRERGHSETYCCYYHAPTLVIVSNEPKQWWAGMDCACAIENMFLAATSLGIASCWINQLGTTCDDPEVRAYLTSLGVPENHKVYGCVALGYKAEGALLKEKTVKAGTITIVE” here?
**A.** The value was “soluble”.

**Q.** With “MGSDKIHHHHHHMEQKLSESEQYLWHFIETHILEIPDYSIVKLSERANVSTATIVRTMKKKGYEGFTSFKHHLKDKENQNINFSALEKVDRGIRTAILKNEEEVTRTINMIEIGNIEDAIQKIKASRRIIIFARGFSELIAQEMMVKFQLAGKYCELHTDPEIIKNISKKLSKKDVALFVSLNGETQELVVAGKNCYDSEIGTILLTASKHSSLMKYIEIPFVGFKSEGSFFPDYEVRSRLPLSILARILLDAYALRTTT” as the sequence, how does the “soluble on expression in E. coli” value read?
**A.** Its value is “not soluble”.

**Q.** Which “soluble on expression in E. coli” value does the source give for “GGGQCYFIPNQSLKPNECQDLKGVSHPLNSVWKTKDCEECTCGQDAISCCNTAAIPTGYDTNKCQKILNKKTCTYTVVEKKDPGKTCDVTGWVL” here?
**A.** The value was “soluble”.

**Q.** Which “soluble on expression in E. coli” value does the source give for “MARKKKTRRITDIMPIRKADKKIDITKARSGKKLTCYELDAKAREDKKKRKHKGLASGSRHSAVEEKANKLQNEIKDPKIGSKKKIPLVVEFVNKPEKGQVIPVIKQVKKQDPMKELENLENNEILNELLDALDAGKTISKSDQQFVDECLDRISELMEELGIEDEDESEDDLYRTFERMDINQFR” here?
**A.** Its value is “not soluble”.

**Q.** With “MAAMPKPAAFWNDRFANEEYVYGEAPNRFVASAARTWLPEAGEVLLLGAGEGRNAVHLAREGHTVTAVDYAVEGLRKTERLATEAGVEVEAIQADVREWKPARAWDAVVVTFLHLPADERPGLYRLVQRCLRPGGRLVAEWFRPEQRTDGYTSGGPPDPAMMVTADELRGHFAEAGIDHLEAAEPTLDEGMHRGPAATVRLVWCRPSTSLEHHHHHH” as the sequence, how does the “soluble on expression in E. coli” value read?
**A.** The value was “soluble”.

**Q.** For “SAAGVDGDTAAAAAAGGGVVVVFDFDRTIIEWDSDDWVITKLGASDAFRRLRPTMRWNPLMDRMMVELHAQGRSADDIRDCLKSAPLDAHVLSAITTASALGCDLRVASDANAFFIETVLEHHGVLGCFSEISTNPARVDGNGRLRISPFHDPDDSSPHGCSLCPENMCKGKIIERIQATANGKRHFIYIGDGRGDYCPSLKLGEGDYVMPKEKYPLWNLISSNKQLLKAEVHPWNNGEELEQTLLKLVNKLITPPAQPSQFEYKCDMSNPVSTEVGQALRVPH”, which “soluble on expression in E. coli” value is on record?
**A.** Its value is “soluble”.

**Q.** With “MGSDKIHHHHHHMIKLAQPQAQRLVLLLAGAVRSVLLYPGSHPAVVQQFAHLGSHVTELLRAYPEVRIGIIDGVLFCENHLFFTPTAAEEELAALLTNRHVEAVAFRAGLTPLELERFVELLTRRELLGEQLVAEVKRAGIAAISVELCGSGATEDHSQGDDEYDPGTTYREALDVVTGLFSEVEKGRIPSSDKLRGVVDRMATMIMQDRATLLGLAMIKDYDNYTFCHSVNVGILSMSLGAAAGLQRDELGELGMAGFLHDVGKTRVEITILNKPGRLSSDEYERMKMHSEEGARIVGEMPGVGERIARAVLGHHIRFDRAGYPESARALAFDRFCDIIAVADCYDAITTLRVYKSPLNPKDALLKLRSLAGSHLDSGLVQAFTEMMGRYPVGTLVRLDTNEVAVVFRPDPNGGERPVVKVVADPAGRLLDPAHMKNLARETGTRIVSVVDPLMTAIDVNRYLG” as the sequence, how does the “soluble on expression in E. coli” value read?
**A.** The value was “not soluble”.

**Q.** Which “soluble on expression in E. coli” value does the source give for “MSVIHPLQNLLTSRDGSLVFAIIKNCILSFKYQSPNHWEFAGKWSDDFDKIQESRNTTAKEQQGQSSENENENKKLKSNKGDSIKRTAAKVPSPGLGAPPIYSYIRNLRLTSDESRLIACADSDKSLLVFDVDKTSKNVLKLRKRFCFSKRPNAISIAEDDTTVIIADKFGDVYSIDINSIPEEKFTQEPILGHVSMLTDVHLIKDSDGHQFIITSDRDEHIKISHYPQCFIVDKWLFGHKHFVSSICCGKDYLLLSAGGDDKIFAWDWKTGKNLSTFDYNSLIKPYLNDQHLAPPRFQNENNDIIEFAVSKIIKSKNLPFVAFFVEATKCIIILEMSEKQKGDLALKQIITFPYNVISLSAHNDEFQVTLDNKESSGVQKNFAKFIEYNLNENSFVVNNEKSNEFDSAIIQSVQGDSNLVTKKEEIYPLYNVSSLRKHGEHYSHHHHHH” here?
**A.** The value was “soluble”.

**Q.** With “MVGEGEIELRNELPGGEVHAAWHLRYAGHDFFVKCDEREMLRGFTAEADQLELLSRSKTVVVPKVWAVGSDRDYSFLVMDYLSPRPLDAHNAFILGQQLARLHQWSDQPQFGLDFDNALSTTPQPNTWQRRWSTFFAEQRIGWQLELAAEKGITFGNIDAIVEHVQQRLASHQPQPSLLHGDLWSANCALGPDGPYIFDPACYWGDRECDLAMLPLHTDQPPQIYDGYQSVSPLPLDFLDRQPIYQLYTLLNRARLFGGQHLATAQKAMDRLLAVLEHHHHHH” as the sequence, how does the “soluble on expression in E. coli” value read?
**A.** Its value is “not soluble”.

**Q.** For “MSKATFDPTRYNKSNNEPFNQVLDKHLSRRNFVKSGLGLGAMTAFAGMGLTGCGSDSSSSPIPVDPVPPLPPTKSSAKLNFTSVKGARLNAVVVPEGYSAQVLAPWGTPLNAKAAPWKADGSNTADDQANSVGMHHDGMHFFPLNQAGDDGLLCINHEYIDEIALHPNGPTVDATTGLRTIVDEVRKEINAHGVSVVRIKLTNNQWEVVYNDKHNRRFTGATVMDIAGPLAYSPLLETRYSPDGSQARGTLNNCGNGYTPWGTYLTCEENWPEYFVNRSTLTRDQIRIGISKTSSRYGWDDLAGQDEERLDEFSRFDVTPKGVSARDDYRNEANGHGYIVEIDPYNPTSRAIKRTALGRFRHEGCTFGKLSEGQPVVFYSGHDARFEYLYKFVSAAPWNPQDANSSNRLEIGDKYMNEGTLYAAKFNENGVGAWLPLTLDSQTTDGKTLGNSFASLADIILNTAGAADLLGATPMDRPEWCAVDPFTGSVYLTLTNNSKRTEANPANPRLKNNFGHIIRWDEADKETEFTWDIFVFGSPSDGNAETNLSGLTDLNQFASPDGLAFDKRGILWVQTDNGAEEVAEETNDQMLAIVPSTLLDSANKQTSVTAKNQMELKRFFVGPNDCEVTGFAISPDYKTVFANIQHPGNWPYSNNAAEVTPTGVVLRPRAATVVIRKLDGKEVAVLEHHHHHH”, which “soluble on expression in E. coli” value is on record?
**A.** The value was “not soluble”.

**Q.** With “MGSDKIHHHHHHMASAATEGQLADWRTRALKLEDEVKKVIVGQDAAIRLINIAIFARGHVMLEGGVGVGKTTLLQSVARGIGGAYERIEGTVDLMPNDLVYHTFLGPEGRPQIDEGPLLRAGENLSVFFFNEINRARPQVHALMLRVMAERHLHAFKREYRLPHMVVFADRNQVEKNETFEIPSAARDRFMMEIPIHVPEDKALRKSLVFDTRFQHAEQLTHTVESGLLPFNMLNDFSDVVQNHVQSSQALEDYVIDLWDATQKPQDFGITLEGIDMQRLIQAGASPRGMGMLLKAARVHAWLMEREYVYPEDIHAVFHEVIAHRLVFNSMYESRRTVLARELTAKILQTVAVPS” as the sequence, how does the “soluble on expression in E. coli” value read?
**A.** The value was “not soluble”.
